The results in this text go back to patent publication US20210101937A1.

This test concerns the target CD137 (UniProt Q07011). Briefly: cell-based or functional assay.

Chain of CD137 (Q07011 24-255 limits assumed): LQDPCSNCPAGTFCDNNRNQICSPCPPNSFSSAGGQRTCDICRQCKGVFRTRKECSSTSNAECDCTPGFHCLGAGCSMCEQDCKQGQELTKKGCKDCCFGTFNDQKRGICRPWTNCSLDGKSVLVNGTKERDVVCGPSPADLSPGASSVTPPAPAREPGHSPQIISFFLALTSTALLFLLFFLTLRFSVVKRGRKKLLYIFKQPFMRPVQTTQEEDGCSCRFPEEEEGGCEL

On to BCY9173 (peptide), for which the EC50, CD137 reporter coculture assay with PC3 cells came to 0.54 nM and the Emax, CD137 reporter coculture assay with PC3 cells (fold over background) is 42.
Regarding BCY10000 (peptide), the EC50, CD137 reporter coculture assay with NCI-H292 cells is 1.1 nM and the Emax, CD137 reporter coculture assay with NCI-H292 cells (fold over background) is 28.
